Reference: patent publication US20250049970A1, “DLL3 TARGETING PEPTIDES AND CONSTRUCTS THEREOF” (MARIANA ONCOLOGY INC., priority 2023, published 2025)
“And” between values parts separate entries of the source, which are not always exact repeats. Equal entries are not always repeated. *1 amine or outer side, *2 acyl side, *3 side chain or, on linkers, in order; H or OH if unused. Bridges are numbered along the chain shown (N, C = ends). Side-chain parts run from the residue outwards. [ ]: non-standard residue; d: D form. The star is where a group is joined. PipA(acetate-DOTA) = (3-(4-piperidinyl)-Ala)-(1,4,7,10-tetraazacyclododecane-1,4,7-triyl)triacetic acid, O=C(O)CN1CCN(CC(=O)O)CCN(CC(=O)N2CCC(C[C@H](N[*:1])C(=O)[*:2])CC2)CCN(CC(=O)O)CC1; PipA(Peg) = 3-(4-piperidinyl)-Ala-(3-hydroxypropanoic acid), O=C(CCO[*:3])N1CCC(C[C@H](N[*:1])C(=O)[*:2])CC1; Ala(1-CH2CO2H-4-piperidyl) = N[C@@H](CC1CCN(CC(=O)O)CC1)C(=O)O; Ala(piperidin-4-yl) = O=C([C@H](CC1CCN([*:3])CC1)N[*:1])[*:2]; DOTA = O=C(O)CN1CCN(CC(=O)O)CCN(CC(=O)*)CCN(CC(=O)O)CC1; PEG8 = NCCOCCOCCOCCOCCOCCOCCOCCOCCC(=O)O; 2Nal = N[C@@H](Cc1ccc2ccccc2c1)C(=O)O; NMetBuAla = CN[C@@H](CC(C)(C)C)C(=O)O; Gly(4-THP) = N[C@H](C(=O)O)C1CCOCC1; Ile(3-Me) = CCC(C)(C)[C@H](N)C(=O)O; aIle = CC[C@@H](C)[C@H](N)C(=O)O; tBuAla = CC(C)(C)C[C@H](N)C(=O)O; Cha = N[C@@H](CC1CCCCC1)C(=O)O; Chg = N[C@H](C(=O)O)C1CCCCC1; NMeNle = CCCC[C@H](NC)C(=O)O; Tle = CC(C)(C)[C@H](N)C(=O)O; αMeP = C[C@@]1(C(=O)O)CCCN1; plPh = not defined here; CH2 = C([*:1])[*:2]

T1: DLL3 on SHP-77 cells (human, UniProt Q9NYJ7 27-618)
T1 construct: SHP-77 cells are human-derived, non-engineered SCLC cells
T1 sequence: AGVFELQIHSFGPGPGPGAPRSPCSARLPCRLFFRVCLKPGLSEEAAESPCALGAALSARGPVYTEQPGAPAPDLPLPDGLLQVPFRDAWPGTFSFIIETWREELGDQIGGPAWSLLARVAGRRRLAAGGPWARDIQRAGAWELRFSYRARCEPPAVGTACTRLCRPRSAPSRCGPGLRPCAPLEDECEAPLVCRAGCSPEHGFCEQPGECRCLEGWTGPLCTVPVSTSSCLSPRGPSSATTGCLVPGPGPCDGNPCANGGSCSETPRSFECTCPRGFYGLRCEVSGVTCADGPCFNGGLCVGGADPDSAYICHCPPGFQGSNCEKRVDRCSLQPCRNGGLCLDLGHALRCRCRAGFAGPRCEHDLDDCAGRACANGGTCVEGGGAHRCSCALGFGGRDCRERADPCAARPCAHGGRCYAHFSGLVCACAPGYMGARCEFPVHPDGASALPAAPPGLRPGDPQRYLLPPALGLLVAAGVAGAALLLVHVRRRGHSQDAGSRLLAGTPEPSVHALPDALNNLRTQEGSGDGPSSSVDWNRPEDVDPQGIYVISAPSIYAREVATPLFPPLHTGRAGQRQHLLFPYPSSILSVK

T2: DLL3 on CT26.DLL3 cells (Homo sapiens (Human), UniProt Q9NYJ7 27-618)
T2 construct: CT26.DLL3 are engineered cells to express DLL3
T2 sequence: T1 sequence

B1: Cpd No. 314 (peptide)
peptide: Ac-WT[tBuAla]C[Ala(piperidin-4-yl)]N[2Nal]K(DOTA)DCWP-NH2
modifications: disulfide 4-10
SMILES: CC(=O)N[C@@H](Cc1c[nH]c2ccccc12)C(=O)N[C@H](C(=O)N[C@@H](CC(C)(C)C)C(=O)N[C@H]1CSSC[C@@H](C(=O)N[C@@H](Cc2c[nH]c3ccccc23)C(=O)N2CCC[C@H]2C(N)=O)NC(=O)[C@H](CC(=O)O)NC(=O)[C@H](CCCCNC(=O)CN2CCN(CC(=O)O)CCN(CC(=O)O)CCN(CC(=O)O)CC2)NC(=O)[C@H](Cc2ccc3ccccc3c2)NC(=O)[C@H](CC(N)=O)NC(=O)[C@H](CC2CCNCC2)NC1=O)[C@@H](C)O
B2: Cpd No. 249 (peptide)
peptide: Ac-WTICK(DOTA)N[2Nal]HDCWP-NH2
modifications: disulfide 4-10
SMILES: CC[C@H](C)[C@H](NC(=O)[C@@H](NC(=O)[C@H](Cc1c[nH]c2ccccc12)NC(C)=O)[C@@H](C)O)C(=O)N[C@H]1CSSC[C@@H](C(=O)N[C@@H](Cc2c[nH]c3ccccc23)C(=O)N2CCC[C@H]2C(N)=O)NC(=O)[C@H](CC(=O)O)NC(=O)[C@H](Cc2c[nH]cn2)NC(=O)[C@H](Cc2ccc3ccccc3c2)NC(=O)[C@H](CC(N)=O)NC(=O)[C@H](CCCCNC(=O)CN2CCN(CC(=O)O)CCN(CC(=O)O)CCN(CC(=O)O)CC2)NC1=O
notes: also called compound 249
B3: Cpd No. 315 (peptide)
peptide: Ac-WT[Tle]CNN[2Nal]K(DOTA)DCWP-NH2
modifications: disulfide 4-10
SMILES: CC(=O)N[C@@H](Cc1c[nH]c2ccccc12)C(=O)N[C@H](C(=O)N[C@H](C(=O)N[C@H]1CSSC[C@@H](C(=O)N[C@@H](Cc2c[nH]c3ccccc23)C(=O)N2CCC[C@H]2C(N)=O)NC(=O)[C@H](CC(=O)O)NC(=O)[C@H](CCCCNC(=O)CN2CCN(CC(=O)O)CCN(CC(=O)O)CCN(CC(=O)O)CC2)NC(=O)[C@H](Cc2ccc3ccccc3c2)NC(=O)[C@H](CC(N)=O)NC(=O)[C@H](CC(N)=O)NC1=O)C(C)(C)C)[C@@H](C)O
B4: Cpd No. 323 (peptide)
peptide: Ac-WT[Cha]CNN[2Nal]K(DOTA)DCWP-NH2
modifications: disulfide 4-10
SMILES: CC(=O)N[C@@H](Cc1c[nH]c2ccccc12)C(=O)N[C@H](C(=O)N[C@@H](CC1CCCCC1)C(=O)N[C@H]1CSSC[C@@H](C(=O)N[C@@H](Cc2c[nH]c3ccccc23)C(=O)N2CCC[C@H]2C(N)=O)NC(=O)[C@H](CC(=O)O)NC(=O)[C@H](CCCCNC(=O)CN2CCN(CC(=O)O)CCN(CC(=O)O)CCN(CC(=O)O)CC2)NC(=O)[C@H](Cc2ccc3ccccc3c2)NC(=O)[C@H](CC(N)=O)NC(=O)[C@H](CC(N)=O)NC1=O)[C@@H](C)O
B5: Cpd No. 322 (peptide)
peptide: Ac-WT[aIle]CNN[2Nal]K(DOTA)DCWP-NH2
modifications: disulfide 4-10
SMILES: CC[C@@H](C)[C@H](NC(=O)[C@@H](NC(=O)[C@H](Cc1c[nH]c2ccccc12)NC(C)=O)[C@@H](C)O)C(=O)N[C@H]1CSSC[C@@H](C(=O)N[C@@H](Cc2c[nH]c3ccccc23)C(=O)N2CCC[C@H]2C(N)=O)NC(=O)[C@H](CC(=O)O)NC(=O)[C@H](CCCCNC(=O)CN2CCN(CC(=O)O)CCN(CC(=O)O)CCN(CC(=O)O)CC2)NC(=O)[C@H](Cc2ccc3ccccc3c2)NC(=O)[C@H](CC(N)=O)NC(=O)[C@H](CC(N)=O)NC1=O
B6: Cpd No. 317 (peptide)
peptide: Ac-WT[Gly(4-THP)]CNN[2Nal]K(DOTA)DCWP-NH2
modifications: disulfide 4-10
SMILES: CC(=O)N[C@@H](Cc1c[nH]c2ccccc12)C(=O)N[C@H](C(=O)N[C@H](C(=O)N[C@H]1CSSC[C@@H](C(=O)N[C@@H](Cc2c[nH]c3ccccc23)C(=O)N2CCC[C@H]2C(N)=O)NC(=O)[C@H](CC(=O)O)NC(=O)[C@H](CCCCNC(=O)CN2CCN(CC(=O)O)CCN(CC(=O)O)CCN(CC(=O)O)CC2)NC(=O)[C@H](Cc2ccc3ccccc3c2)NC(=O)[C@H](CC(N)=O)NC(=O)[C@H](CC(N)=O)NC1=O)C1CCOCC1)[C@@H](C)O
B7: Cpd No. 417 (peptide)
peptide: Ac-WT[Chg]C[Ala(piperidin-4-yl)]N[2Nal]K(DOTA)DCWP[dK]([PEG8-plPh])-NH2
modifications: bridge 4-10; not fully specified (bridges); reading uncertain; also: bridge 4-10: thioacetal per mods, disulfide

The binders below were run against T1, DLL3 on SHP-77 cells (assay: [177Lu]Lu-labelled peptide on SHP-77 cells, 1 h 37 C, gamma counter; B = 25<%<=50).

Binder | % Binding
B1 | > 25% and < 50%

These binders were tested against T2, DLL3 on CT26.DLL3 cells (assay: [177Lu]Lu-labelled peptide on CT26.DLL3 cells, 1 h 37 C, gamma counter; A = %<=25).
Method: (§1) Adherent cell studies: The cells were cultured in appropriate culture media (20 mL) in tissue culture treated T150 flasks at 37° C. and 5% C02. Adherent cells were detached (60-70% confluent) using 5 mL Versene at 37° C. for 3 minutes. After confirming the viability using countess and count of detached cells using Trypan blue, the cells were centrifuged at 4° C. for 5 minutes (1,000 rpm). The cell pellet obtained was washed once with PBS and resuspended in 1% PBSA to obtain the desired cell concentration (5-25 million cells/mL).
(§2) Total uptake: Cells were incubated with 300 μL (0.8 μCi) of the incubation buffer (containing radiolabeled peptide [¹⁷⁷Lu]Lu-test peptide) for 1 hour at 37° C. (Table 10). Post incubation, the cells were pelleted and washed 2 times using cold PBS+1% BSA. The supernatant and washes were combined and counted together as “unbound fraction” in a gamma counter. The cells were then resuspended in 300 μL of 1% PBS+1% BSA and counted in the gamma counter as “bound fraction”.

Binder | % Binding [%]
B2 | ≤ 25
Ac-WT[Ile(3-Me)]CNN[2Nal]K(DOTA)DCWP-NH2 (disulfide 4-10) [Cpd No. 321] | ≤ 25
B3 | ≤ 25
Ac-WT[Chg]CNN[2Nal]K(DOTA)DCWP-NH2 (disulfide 4-10) [Cpd No. 318] | ≤ 25
B4 | ≤ 25
B5 | ≤ 25
Ac-WT[tBuAla]CNN[2Nal]K(DOTA)DCWP-NH2 (disulfide 4-10) [Cpd No. 316] | ≤ 25
Ac-WT[NMeNle]CNN[2Nal]K(DOTA)DCWP-NH2 (disulfide 4-10) [Cpd No. 320] | ≤ 25
B6 | ≤ 25

The binders below were run against DLL3 on CT26.DLL3 cells (Homo sapiens (Human)) (UniProt Q9NYJ7) (assay: [177Lu]Lu-labelled peptide on CT26.DLL3 cells, 1 h 37 C, gamma counter; B = 25<%<=50).

Binder | % Binding
B7 | > 25% and < 50%
Ac-WT[NMeNle]C[Ala(piperidin-4-yl)]N[2Nal]K(DOTA)DCWP-NH2 (disulfide 4-10) [Cpd No. 300] | > 25% and < 50%
B1 | > 25% and < 50%
Ac-WT[Tle]C[Ala(piperidin-4-yl)]N[2Nal]K(DOTA)DCWP-NH2 (disulfide 4-10) [Cpd No. 301] | > 25% and < 50%

These binders were tested against T1, DLL3 on SHP-77 cells (assay: [177Lu]Lu-labelled peptide on SHP-77 cells, 1 h 37 C, gamma counter; C = %>50).

Binder | % Binding [%]
Ac-WT[NMetBuAla]C[PipA(Peg)]N[2Nal]K(DOTA)DCWP-NH2 (linker 4-10 via CH2) [Cpd No. 448] | > 50
Ac-WT[NMetBuAla]C[Ala(1-CH2CO2H-4-piperidyl)]N[2Nal]K(DOTA)DCWP-NH2 (linker 4-10 via CH2) [Cpd No. 447] | > 50
Ac-WT[NMetBuAla]C[PipA(acetate-DOTA)]N[2Nal]K(DOTA)DCWP-NH2 (linker 4-10 via CH2) [Cpd No. 449] | > 50
Ac-WT[NMetBuAla]C[Ala(piperidin-4-yl)]N[2Nal]K(DOTA)DCWP-NH2 (bridge 4-10; not fully specified (bridges)) [Cpd No. 153] | > 50
Ac-WT[NMetBuAla]C[Ala(piperidin-4-yl)]N[2Nal]K(DOTA)DCWP-OH (linker 4-10 via CH2) [Cpd No. 442] | > 50
Ac-WT[NMetBuAla]C[Ala(piperidin-4-yl)]N[2Nal]K(DOTA)DCWP[dK]-NH2 (bridge 4-10; not fully specified (residue 13)) [Cpd No. 445] | > 50

Each binder was assayed against Recombinant human DLL3 aa27-215 protein (human) (UniProt Q9NYJ7) (assay: ELISA: anti-DOTA antibody coated on the plate captures the DOTA-containing peptide (titrated 100 nM to 1.69 pM); 2 ug/mL DLL3 aa27-215 (His-tagged) added; detected with anti-His-HRP, OD450; EC50 fitted in GraphPad).

Binder | EC50 [nM]
Ac-WT[tBuAla]C[Ala(piperidin-4-yl)]N[2Nal]K(DOTA)DCW[αMeP]-NH2 (bridge 4-10; not fully specified (bridges)) [Cpd No. 437] | 2.86

What follows are binders tested against T1, DLL3 on SHP-77 cells (assay: [177Lu]Lu-labelled peptide on SHP-77 cells, 1 h 37 C, gamma counter; A = %<=25).
Method: as §1, §2

Binder | % Binding [%]
B2 | ≤ 25
B4 | ≤ 25
B5 | ≤ 25
Ac-WT[NMeNle]CNN[2Nal]K(DOTA)DCWP-NH2 (disulfide 4-10) [Cpd No. 320] | ≤ 25
B6 | ≤ 25
